Target: LFA1 receptor on T cells (human) (UniProt P20701)
Test: cell-based or functional assay

Sequence of UniProt P20701 (P20701 26-1170, chain 1 of 2): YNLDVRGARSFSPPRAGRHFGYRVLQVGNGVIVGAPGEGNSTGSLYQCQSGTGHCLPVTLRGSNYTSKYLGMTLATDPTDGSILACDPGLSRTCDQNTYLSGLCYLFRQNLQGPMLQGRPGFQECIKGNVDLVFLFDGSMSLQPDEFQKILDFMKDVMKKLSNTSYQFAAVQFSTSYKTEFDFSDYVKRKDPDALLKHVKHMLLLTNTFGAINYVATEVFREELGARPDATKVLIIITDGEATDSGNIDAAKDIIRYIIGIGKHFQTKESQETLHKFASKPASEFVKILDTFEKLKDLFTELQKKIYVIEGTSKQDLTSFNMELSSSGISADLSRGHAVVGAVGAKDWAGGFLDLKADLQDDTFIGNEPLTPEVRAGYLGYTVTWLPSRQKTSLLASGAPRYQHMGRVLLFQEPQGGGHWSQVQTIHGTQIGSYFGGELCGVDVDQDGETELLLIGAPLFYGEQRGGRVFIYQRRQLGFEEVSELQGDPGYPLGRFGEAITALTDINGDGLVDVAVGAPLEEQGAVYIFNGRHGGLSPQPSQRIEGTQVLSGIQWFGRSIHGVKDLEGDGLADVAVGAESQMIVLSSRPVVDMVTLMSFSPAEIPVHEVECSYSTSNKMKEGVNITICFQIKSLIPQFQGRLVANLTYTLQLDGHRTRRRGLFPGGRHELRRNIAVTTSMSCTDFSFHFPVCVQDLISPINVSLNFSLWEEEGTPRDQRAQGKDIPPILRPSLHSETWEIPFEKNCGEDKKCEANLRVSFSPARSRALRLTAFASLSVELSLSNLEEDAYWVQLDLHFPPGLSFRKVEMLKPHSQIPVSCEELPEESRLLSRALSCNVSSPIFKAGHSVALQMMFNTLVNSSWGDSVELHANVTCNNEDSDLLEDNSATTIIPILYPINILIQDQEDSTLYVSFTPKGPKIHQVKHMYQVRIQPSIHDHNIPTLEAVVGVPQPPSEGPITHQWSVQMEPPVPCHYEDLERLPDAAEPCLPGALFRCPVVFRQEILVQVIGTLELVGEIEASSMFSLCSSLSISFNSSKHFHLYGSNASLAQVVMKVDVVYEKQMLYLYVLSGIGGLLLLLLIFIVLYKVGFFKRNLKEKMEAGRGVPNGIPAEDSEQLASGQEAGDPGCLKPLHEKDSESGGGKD
Sequence of UniProt P20701 (P05107 23-769, chain 2 of 2, further chain): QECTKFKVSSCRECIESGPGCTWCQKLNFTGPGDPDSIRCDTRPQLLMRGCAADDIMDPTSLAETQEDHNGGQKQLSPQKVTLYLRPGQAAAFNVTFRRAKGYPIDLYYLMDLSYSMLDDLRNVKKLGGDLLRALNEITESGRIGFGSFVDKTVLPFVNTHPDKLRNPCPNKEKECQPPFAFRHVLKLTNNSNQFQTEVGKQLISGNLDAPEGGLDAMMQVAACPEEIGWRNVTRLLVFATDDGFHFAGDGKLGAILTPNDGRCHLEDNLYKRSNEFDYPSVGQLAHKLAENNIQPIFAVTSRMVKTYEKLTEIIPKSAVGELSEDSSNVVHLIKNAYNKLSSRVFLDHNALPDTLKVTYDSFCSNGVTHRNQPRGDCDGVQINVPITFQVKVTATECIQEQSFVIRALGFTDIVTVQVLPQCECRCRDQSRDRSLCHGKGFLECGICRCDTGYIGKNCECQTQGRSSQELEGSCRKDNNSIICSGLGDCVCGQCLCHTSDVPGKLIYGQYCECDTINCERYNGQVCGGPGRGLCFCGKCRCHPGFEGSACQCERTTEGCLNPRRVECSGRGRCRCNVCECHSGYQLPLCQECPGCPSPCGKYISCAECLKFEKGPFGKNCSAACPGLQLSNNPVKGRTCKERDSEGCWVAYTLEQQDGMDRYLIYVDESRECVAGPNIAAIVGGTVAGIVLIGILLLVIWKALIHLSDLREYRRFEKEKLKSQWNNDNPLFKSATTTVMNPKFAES

## anti-LFA1 (TS1/18) monoclonal antibody
  IFN-γ secretion (ELISA) by CD4+ T cells stimulated with IL12, IL18 and TL1A after pretreatment with LFA1 blocking antibody, compared to IgG control antibody: 43 % reduction

Source: US12618111
